Data taken from patent US20250154287A1 (Pfizer, published 2025).

T1: biotinylated human MIGIS-α peptide (human, biotinylated)
T1 peptide: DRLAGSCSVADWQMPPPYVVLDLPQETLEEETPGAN


Tests used:
[1] = molecular target: T2, biotinylated cyno MIGIS-α peptide (cynomolgus monkey); assay: SPR (Biacore T200, 37 C), biotinylated peptide captured, OAA as analyte, 1:1 fit
T2 construct: domain: MIGIS-α

[2] = molecular target: T1, biotinylated human MIGIS-α peptide; assay: as above
[3] = molecular target: T2, biotinylated cyno MIGIS-α peptide; assay: SPR, OAA format
[4] = molecular target: T1, biotinylated human MIGIS-α peptide; assay: SPR, OAA format
[5] = molecular target: T3, human membrane IgA (mIgA), endogenously expressed on primary B cells and DAKIKI cells (human, UniProt P01876 1-398); assay: cell-based or functional assay
[6] = molecular target: T3, human membrane IgA (mIgA), endogenously …; assay: cell-based or functional assay; remark: listed apart in the source
[7] = molecular target: T3, human membrane IgA (mIgA), endogenously …; assay: cell-based or functional assay; remark: listed apart in the source
[8] = molecular target: T4, human membrane IgA overexpressed on Ramos cells (human); assay: flow cytometry on IgA+ Ramos cells
T4 construct: its MIGIS-α segment is the short form; also called IgA^+ Ramos; human IgA^+ RAMOS cells

[9] = molecular target: T5, parental (IgA^-) Ramos cell line, which expresses only cell surface IgM (UniProt P01871 1-474); assay: flow cytometry on parental Ramos cells
T5 construct: whole, on cells; Negative control cells without membrane IgA; also called mIgA negative Ramos cells; parental Ramos

[10] = molecular target: T3, human membrane IgA (mIgA), endogenously …; assay: cell-based or functional assay; remark: listed apart in the source
[11] = molecular target: T3, human membrane IgA (mIgA), endogenously …; assay: cell-based or functional assay; remark: listed apart in the source

T4 sequence (heavy, as listed by the source): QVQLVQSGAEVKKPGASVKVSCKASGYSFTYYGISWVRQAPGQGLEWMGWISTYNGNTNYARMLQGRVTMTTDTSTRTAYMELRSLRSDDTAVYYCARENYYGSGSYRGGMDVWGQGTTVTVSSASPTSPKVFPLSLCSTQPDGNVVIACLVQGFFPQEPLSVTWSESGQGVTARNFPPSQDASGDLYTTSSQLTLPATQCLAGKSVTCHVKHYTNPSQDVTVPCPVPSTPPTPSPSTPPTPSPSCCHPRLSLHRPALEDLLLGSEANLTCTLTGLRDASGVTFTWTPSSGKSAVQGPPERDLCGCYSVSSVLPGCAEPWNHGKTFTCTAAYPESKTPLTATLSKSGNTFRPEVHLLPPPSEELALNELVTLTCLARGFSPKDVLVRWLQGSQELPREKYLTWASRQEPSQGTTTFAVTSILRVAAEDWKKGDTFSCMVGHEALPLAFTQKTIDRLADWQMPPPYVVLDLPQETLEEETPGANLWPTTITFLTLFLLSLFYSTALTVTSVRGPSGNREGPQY
T5 sequence (P01871 whole entry): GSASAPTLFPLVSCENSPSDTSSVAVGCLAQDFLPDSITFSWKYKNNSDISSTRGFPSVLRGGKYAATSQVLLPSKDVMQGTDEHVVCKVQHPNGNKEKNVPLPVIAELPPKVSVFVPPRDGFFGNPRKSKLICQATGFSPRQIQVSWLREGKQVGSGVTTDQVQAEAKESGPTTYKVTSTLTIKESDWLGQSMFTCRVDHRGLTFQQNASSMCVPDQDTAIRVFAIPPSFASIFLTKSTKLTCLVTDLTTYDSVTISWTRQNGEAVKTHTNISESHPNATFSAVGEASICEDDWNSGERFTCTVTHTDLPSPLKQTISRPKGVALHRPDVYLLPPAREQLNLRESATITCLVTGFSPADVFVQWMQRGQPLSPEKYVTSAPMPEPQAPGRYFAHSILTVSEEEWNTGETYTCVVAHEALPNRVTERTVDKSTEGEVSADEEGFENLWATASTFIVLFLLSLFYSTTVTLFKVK
T3 sequence (P01876 whole entry): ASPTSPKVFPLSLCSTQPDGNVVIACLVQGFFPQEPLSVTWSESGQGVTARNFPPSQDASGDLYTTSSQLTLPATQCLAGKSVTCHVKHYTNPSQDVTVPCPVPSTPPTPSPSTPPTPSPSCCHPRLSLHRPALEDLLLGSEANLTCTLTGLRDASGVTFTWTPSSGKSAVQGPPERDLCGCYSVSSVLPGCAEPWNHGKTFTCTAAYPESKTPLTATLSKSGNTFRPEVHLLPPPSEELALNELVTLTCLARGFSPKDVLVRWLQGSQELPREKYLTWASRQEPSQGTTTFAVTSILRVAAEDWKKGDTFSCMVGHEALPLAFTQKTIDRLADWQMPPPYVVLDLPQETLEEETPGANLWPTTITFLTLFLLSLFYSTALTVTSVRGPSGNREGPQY

Binder	Kd [1] [nM]	koff [1] [s⁻¹]	kon [1] [M⁻¹ s⁻¹]	Kd [2] [nM]	koff [2] [s⁻¹]	kon [2] [M⁻¹ s⁻¹]	EC50 [8] [nM]	mean fluorescence intensity at the top saturating concentration tested [8] [MFI]	binding result [9]	further results
GBT-IgA-0070 (H05 in one arm antibody format) (antibody, also called H05 OAA) heavy: not shown EPKSSDKTHTCPPCPAPEAAGAPSVFLFPPKPKDTLMISRTPEVTCVVVDVSHEDPEVKFNWYVDGVEVHNAKTKPREEQYNSTYRVVSVLTVLHQDWLNGKEYKCKVSNKALPAPIEKTISKAKGQPREPQVYTLPPCREEMTKNQVSLSCAVKGFYPSDIAVEWESNGQPENNYKTTPPVLDSDGSFFLVSKLTVDKSRWQQGNVFSCSVMHEALHNRYTQKSLSLSPGK light: not shown	56	0.0154	275000	210	0.0222	105000				
GBT-IgA-1572 (antibody, One-armed antibody) heavy: not shown EPKSSDKTHTCPPCPAPEAAGAPSVFLFPPKPKDTLMISRTPEVTCVVVDVSHEDPEVKFNWYVDGVEVHNAKTKPREEQYNSTYRVVSVLTVLHQDWLNGKEYKCKVSNKALPAPIEKTISKAKGQPREPQVYTLPPCREEMTKNQVSLSCAVKGFYPSDIAVEWESNGQPENNYKTTPPVLDSDGSFFLVSKLTVDKSRWQQGNVFSCSVMHEALHNRYTQKSLSLSPGK light: not shown	3.4	0.0018	548000	3.47	0.0028	818000				
GBT-IgA-1091 (antibody, One-armed antibody; also called one armed antibody version of GBT-IgA-1602; OAA of GBT-IgA-1179) heavy: not shown EPKSSDKTHTCPPCPAPEAAGAPSVFLFPPKPKDTLMISRTPEVTCVVVDVSHEDPEVKFNWYVDGVEVHNAKTKPREEQYNSTYRVVSVLTVLHQDWLNGKEYKCKVSNKALPAPIEKTISKAKGQPREPQVYTLPPCREEMTKNQVSLSCAVKGFYPSDIAVEWESNGQPENNYKTTPPVLDSDGSFFLVSKLTVDKSRWQQGNVFSCSVMHEALHNRYTQKSLSLSPGK light: not shown	2.46	0.0023	953000	2.13	0.0028	1.32e+06				
GBT-IgA-1090 (antibody, One-armed antibody) heavy: not shown EPKSSDKTHTCPPCPAPEAAGAPSVFLFPPKPKDTLMISRTPEVTCVVVDVSHEDPEVKFNWYVDGVEVHNAKTKPREEQYNSTYRVVSVLTVLHQDWLNGKEYKCKVSNKALPAPIEKTISKAKGQPREPQVYTLPPCREEMTKNQVSLSCAVKGFYPSDIAVEWESNGQPENNYKTTPPVLDSDGSFFLVSKLTVDKSRWQQGNVFSCSVMHEALHNRYTQKSLSLSPGK light: not shown	1.05	0.0013	1.27e+06	0.724	0.0015	2.06e+06				
GBT-IgA-0752 (GBT-IgA-0862 in one armed format) (antibody, also called one armed format of GBT-IgA-0862 and of GBT-IgA-1164) heavy: not shown EPKSSDKTHTCPPCPAPEAAGAPSVFLFPPKPKDTLMISRTPEVTCVVVDVSHEDPEVKFNWYVDGVEVHNAKTKPREEQYNSTYRVVSVLTVLHQDWLNGKEYKCKVSNKALPAPIEKTISKAKGQPREPQVYTLPPCREEMTKNQVSLSCAVKGFYPSDIAVEWESNGQPENNYKTTPPVLDSDGSFFLVSKLTVDKSRWQQGNVFSCSVMHEALHNRYTQKSLSLSPGK light: not shown	0.795	0.0017	2.22e+06	0.665	0.0015	2.29e+06				fold affinity difference against GBT-IgA-1091 [3]: ~3 fold; fold affinity gain over T18 [3]: ~14 fold; fold affinity difference against GBT-IgA-1091 [4]: ~3 fold; fold affinity gain over T18 [4]: ~16 fold
GBT-IgA-0836 (T18-NKp46 bsAb) (bispecific antibody) heavy 1: not shown light 1: not shown heavy 2: not shown light 2: DIQMTQTTSSLSASLGDRVTISCRASQDISNYLNWYQQKPDGTVKLLIYYTSRLHSGVPSRFSGSGSGTDYSLTINNLEQEDIATYFCQQGNTRPWTFGGGTKLEIKRTVAAPSVFIFPPSDEQLKSGTASVVCLLNNFYPREAKVQWKVDNALQSGNSQESVTEQDSKDSTYSLSSTLTLSKADYEKHKVYACEVTHQGLSSPVTKSFNRGEC										EC50 (nM), cytotoxicity against IgA^+ CD20^+ B cells by flow cytometry [5]: 0.457 nM; EC50 (nM), reduction in secreted IgA in human PBMC supernatants [6]: 980 nM; reduction of secreted IgA in PBMC supernatants at 300 nM (IgA ELISA) [7]: 15%
GBT-IgA-0035 (ET17) (antibody, V domains shown, Heavy constant region of the tested format is not tied to this name; also called E17) VH: EVQLLESGGGLVQPGGSLRLSCAASGFTFSRYAMSWVRQVPGKGLEWVSAITGSGSGTYYADPVKGRFTISRDNSKNTLYLQMNSLRAEDTAVYHCAKERSGSSSDYWGQGTLVTVSS VL: EIVLTQSPATLSLSPGERATLSCRASQTVGSHLAWYQQKPGQAPRLLIYEASNRATGIPPRFSGSGSGTDFTLTISSLEPEDFAVYYCQQRNNWPITFGQGTRLESKR							11.9	23600	no binding	
GBT-IgA-0020 (15E7) (antibody, V domains shown) VH: EVQLLESGGGLVQPGGSLRLSCAASGFTFSSYAMSWVRQVPGKGLEWVSAITGSGSGTYYADPVKGRFTISRDNSKNTLYLQMNSLRAEDTAVYHCAKERSGSSSDYWGQGTLVTVSS VL: EIVLTQSPATLSLSPGERATLSCRASQTVSSYLAWYQQKPGQAPRLLIYEASNRATGIPPRFSGSGSGTDFTLTISSLEPEDFAVYYCQQRNNWPITFGQGTRLESKR							64.5	23100	no binding	
GBT-IgA-0034 (ET10) (antibody, V domains shown, Heavy constant region of the tested format is not tied to this name; also called E10) VH: EVQLLESGGGLVQPGGSLRLSCAASGFTFSSYAMSWVRQVPGKGLEWVSSITGSGGGTYYADPVKGRFTISRDNSKNTLYLQMNSLRAEDTAVYHCAKERSGSSSDYWGQGTLVTVSS VL: EIVLTQSPATLSLSPGERATLSCRASQTVRSHLAWYQQKPGQAPRLLIYEASNRATGIPPRFSGSGSGTDFTLTISSLEPEDFAVYYCQQRNNWPITFGQGTRLESKR							27	22600	no binding	
GBT-IgA-0036 (ET18) (antibody, V domains shown, Heavy constant region of the tested format is not tied to this name; also called E18) VH: EVQLLESGGGLVQPGGSLRLSCAASGFTFSRYAMSWVRQVPGKGLEWVSAITGSGSGTYYADPVKGRFTISRDNSKNTLYLQMNSLRAEDTAVYHCAKERSGSSSDYWGQGTLVTVSS VL: EIVLTQSPATLSLSPGERATLSCRASQTVSSHLAWYQQKPGQAPRLLIYEASNRATGIPPRFSGSGSGTDFTLTISSLEPEDFAVYYCQQRNNWPITFGQGTRLESKR							10.8	26100	no binding	
GBT-IgA-0661 (T18-CD3 bispecific EFN EE/RR huIgG1) (bispecific antibody) heavy 1: not shown light 1: not shown heavy 2: EVQLVESGGGLVQPGGSLRLSCAASGFTFSDYYMTWVRQAPGKGLEWVAFIRNQARGYTSDHNPSVKGRFTISRDNAKNSLYLQMNSLRAEDTAVYYCARDRPSYYVLDYWGQGTTVTVSSASTKGPSVFPLAPSSKSTSGGTAALGCLVKDYFPEPVTVSWNSGALTSGVHTFPAVLQSSGLYSLSSVVTVPSSSLGTQTYICNVNHKPSNTKVDKKVEPKSCEKTHTCPPCPAPEAAGAPSVFLFPPKPKDTLMISRTPEVTCVVVDVSHEDPEVKFNWYVDGVEVHNAKTKPREEQYNSTYRVVSVLTVLHQDWLNGKEYKCKVSNKALPAPIEKTISKAKGQPREPQVYTLPPSREEMTKNQVSLTCEVKGFYPSDIAVEWESNGQPENNYKTTPPVLDSDGSFFLYSKLTVDKSRWQQGNVFSCSVMHEALHNHYTQKSLSLSPGK light 2: DIQMTQSPSSLSASVGDRVTITCTSSQSLFNVRSQKNYLAWYQQKPGKAPKLLIYWASTRESGVPSRFSGSGSGTDFTLTISSLQPEDFATYYCKQSYDLFTFGGGTKVEIKRTVAAPSVFIFPPSDEQLKSGTASVVCLLNNFYPREAKVQWKVDNALQSGNSQESVTEQDSKDSTYSLSSTLTLSKADYEKHKVYACEVTHQGLSSPVTKSFNRGEC										EC50 (nM), cytotoxicity against IgA^+ CD20^+ B cells by flow cytometry [5]: 2.68 nM; EC50 (nM), reduction in secreted IgA in human PBMC supernatants [6]: 21.2 nM; reduction of secreted IgA in PBMC supernatants at 300 nM (IgA ELISA) [7]: 52%
GBT-IgA-1164, anti-MIGIS-α/CD3 bispecific antibody (bispecific antibody) heavy 1: not shown light 1: not shown heavy 2: EVQLVESGGGLVQPGGSLRLSCAASGFTFSDYYMTWVRQAPGKGLEWVAFIRNQARGYTSDHNPSVKGRFTISRDNAKNSLYLQMNSLRAEDTAVYYCARDRPSYYVLDYWGQGTTVTVSSASTKGPSVFPLAPSSKSTSGGTAALGCLVKDYFPEPVTVSWNSGALTSGVHTFPAVLQSSGLYSLSSVVTVPSSSLGTQTYICNVNHKPSNTKVDKKVEPKSCEKTHTCPPCPAPEAAGAPSVFLFPPKPKDTLMISRTPEVTCVVVDVSHEDPEVKFNWYVDGVEVHNAKTKPREEQYNSTYRVVSVLTVLHQDWLNGKEYKCKVSNKALPAPIEKTISKAKGQPREPQVYTLPPSREEMTKNQVSLTCEVKGFYPSDIAVEWESNGQPENNYKTTPPVLDSDGSFFLYSKLTVDKSRWQQGNVFSCSVMHEALHNHYTQKSLSLSPGK light 2: DIQMTQSPSSLSASVGDRVTITCTSSQSLFNVRSQKNYLAWYQQKPGKAPKLLIYWASTRESGVPSRFSGSGSGTDFTLTISSLQPEDFATYYCKQSYDLFTFGGGTKVEIKRTVAAPSVFIFPPSDEQLKSGTASVVCLLNNFYPREAKVQWKVDNALQSGNSQESVTEQDSKDSTYSLSSTLTLSKADYEKHKVYACEVTHQGLSSPVTKSFNRGEC										EC50 (nM), IgA^+ memory B cell kill [10]: 0.318 nM; EC50 (nM), IgA producing B cell kill [11]: 0.916 nM
